In a protein production outcome set (Wang et al. 2014) one finds protein production data, which are given here for 24 sequences.

This data set is described as follows: label from the status in PepcDB records.

Consider “MSLKLTPEAAGTFAIAPTPFHDDGKIDDVSIDRLTDFYAEVGCEGVTVLGILGEAPKLDAAEAEAVATRFIKRAKSMQVIVGVSAPGFAAMRRLARLSMDAGAAGVMIAPPPSLRTDEQITTYFRQATEAIGDDVPWVLQDYPLTLSVVMTPKVIRQIVMDSASCVMLKHEDWPGLEKITTLRGFQKDGSLRPLSILCGNGGLFLDFEMERGADGAMTGYCFPDMLVDVVKLSKAGQRDLAHNLFDAHLPLIRYEHQQGVGLSVRKYVLKKRGLLSSSAQRKPGASLTDTAREEVDYLLSRLARVEGHHHHHH”, for which the protein production result is “not failed”.
For the sequence “MSLKNKFKNFFSLDDEEYEYEYIETDREEIPEEHESKDRTAYQSKAAGKQNVVSLQSVQKSSKVVLSEPRVYAEAQEIADHIKNRRAVVVNLQRIQHDQAKRIVDFLSGTVYALGGDIQRIGADIFLCTPENVDVSGTISELIEEEHQRW”, the protein production entry was “failed”.
Under “MSLKNMADLSYVNIFTRDIVAMSAFYQQVFGFQEIESIRSPIFRGLDTGKSCIGFNAHEAYELMQLAQFSETSGIKFLLNFDVDTKEAVDKLVPVAIAAGATLIKAPYETYYHWYQAVLLDPERNVFRINNVLEGHHHHHH” stands “not failed”; under “MSLKSLASIENWPVPTAAAGVVRADGTVLGTHGPAAHRFPLASVTKPLAAYAALVAYEEGAIELDEPAGPPGATVRHLLAHTSGLAFDEHRVTAPPGDRRLYSNAGFEQLGDHIAKAAEMPFAEYARQAVLEPLGMTATSLAGSPAKDGVSTVDDLLRFAAEVQAPRLLDPRTVAEAMTVQYPGTKGVLPGYGHQNPNDWGLGFEIRDGKSPHWTGAASSPRTFGHFGQSGTFLWIDPDAALACVSLTDRAFGPWAVEAWPPFTDGVLAEVRG”, “failed”.
Under “MSLKVQGYANVVTLPNVTGRVIIVGDIHGCRAQLEDLLRAVSFKQGSDTLVAVGDLVNKGPDSFGVVRLLKRLGAYSVLGNHDAKLLKLVKKLGKKECLKGRDAKSSLAPLAQSIPTDVETYLSQLPHIIRIPAHNVMVAHAGLHPQRPVDRQYEDEVTTMRNLIEKEQEATGGVTLTATEETNDGGKPWASMWRGPETVVFGHDARRGLQEQYKPLAIGLDSRCVYGGRLSAAVFPGGCIISVPGWNGASAAAEGHHHHHH” stands “not failed”.
In the case of “MSLKYKLIVLDLDGTLTNSKKEISSRNRETLIRIQEQGIRLVLASGRPTYGIVPLANELRMNEFGGFILSYNGGEIINWESKEMMYENVLPNEVVPVLYECARTNHLSILTYDGAEIVTENSLDPYVQKEAFLNKMAIRETNDFLTDITLPVAKCLIVGDAGKLIPVESELCIRLQGKINVFRSEPYFLELVPQGIDKALSLSVLLENIGMTREEVIAIGDGYNDLSMIKFAGMGVAMGNAQEPVKKAADYITLTNDEDGVAEAIERIFNVEGHHHHHH”, the protein production result is recorded as “not failed”.
Under “MSLLIRELETNDLDNFPEIDDSFIVNARLMLSLSKVNRRIEYTVEDVPSYEKSYLQNDNEELVYNEYINKPNQIIYIALLHNQIIGFIVLKKNWNNYAYIEDITVDKKYRTLGVGKRLIAQAKQWAKEGNMPGIMLETQNNNVAACKFYEKCGFVIGGFDFLVYKGLNMTSDEVAIYWYLHFDS” stands “failed”; under “MSLLKNSSYILTLLSLFGFLLTWQRSAFSLFFLIPIFLTLFWEFFLFLKLRKNIIKEATLIKGSLFYRISMGDFYLYIFSFFLAIFGLVSLFLNFLNLEKIDFVFIFIILPLLMIFLKKELHLQFIDNAYNDFRIVVIASFFTALFYAFYGLFFTYNELLNLELFSRKIIAYKSASFVYFDFLSEFLHFVSNLKFFIFSYFGYLGFRALNFIFDFFNFFMFCSLLAFVFNFVLKIKIKIIVLFLCFIMVLGNYFLKEQRNNALKSEQEQILLWMNNFNFLKDNNLSLIQKEKDLFEKDLKDLREIFKKNAFEIGIWWFSKEKEDLEKRINESLK”, “failed”; under “MSLLSLLIALAADRSLSAKVWQFNFYYQHYHHFFSKNFTAKQGTTASAVFIILPVIATYLLLDVIDNSVLQLLFSTVILIVCFGCTTTRKSYKSYLHSAFRGEETTTEMHHEQLLSDKNLPEMGFGQALIWLNYRYYIAIMLFFTVFGAAGAVFYRLLTTVIEHKKAKCMASAAENKAQAEVSSVDESDIESEEHHQAVHEGNVAPNIMNGCQNHHDVLFWLDWLPVRIASFGYMFVGHFSKAMPVWLESLFDSQKPTHQVLIDVAEKSEDLLVNENDCTAEPCLLVRLAKRNVLLVLAVISILTLSGLLN”, “failed”.
Under “MSLMIKVEDMMTRHPHTLLRTHTLNDAKHLMEALDIRHVPIVDANKKLLGIVSQRDLLAAQESSLQRSAQGDSLAFETPLFEVMHTDVTSVAPQAGLKESAIYMQKHKIGCLPVVAKDVLVGIITDSDFVTIAINLLELQEESEPDELDEEQEGHHHHHH” stands “not failed”; under “MSLNGITKYVEKLTFFNIQSGKQVEFNRDEKVILSNVPFIQQLPELDRGCEVTSLAMMLQYAGITVDKMKLANEIKKVDFMNDGVRGNPNEGFVGNIYTFSESGYGVYHGPLFQLAKKYLPNKAVDLTGKSIEELYKSVKAGQPVVIITNATFAPLDEDEFTTWETNNGDVSITYNEHCVVLIGYDQESVYIRDPLKDSLDVKVPREKFEQAWVQMGSQAISYVKRSKEGHHHHHH”, “not failed”.
Under “MSLNGNGSIELKGTVEEVWSKLMDPSILSKCIMGCKSLELIGEDKYKADLQIGIAAVKGKYDAIIEVTDIKPPYHYKLLVNGEGGPGFVNAEGVIDLTPINDECTQLTYTYSAEVGGKVAAIGQRMLGGVAKLLISDFFKKIQKEIAKSKQEASEGHHHHHH” stands “not failed”.
Take “MSLNKQDGENTLQHEKSSSFGYWCSPSPEQLERLSLKQLAAVSNFVIGRRGYGCITFQHDVDLTAFTKSFREELFGKIVIFRSSKTVEVYPDEATKPMIGHGLNVPAIITLENVYPVDKKTKKPMKDTTKFAEFQVFDRKLRSMREMNYISYNPFGGTWTFKVNHFEGHHHHHH”: the protein production entry is given as “not failed”.
In the case of “MSLNRRELLERISEYQFACIELNLYLDNNPRDKKALDSYNRYCDKFTQAVCDYESKYGALTNFGYESSEYPWSWISEPWPWDKSFYKLEHHHHHH”, the protein production result is on record as “not failed”.
For “MSLNRVFIVDDDTLTCNLLKTIVEPIFGNVEAFQHPRAFLTLSLNKQDIIILDLMMPDMDGIEVIRHLAEHKSPASLILISGYDSGVLHSAETLALSCGLNVINTFTKPINTEVLTCFLTSLSNRQAEGHHHHHH”, the protein production result is “not failed”.
Under “MSLNSEAKSRIACDIDFDRDGRQAGYARAPLSRNNSGWGTVEIPITVVKNGSGPTVLLTGGVHGDEYEGQIAISDLARRLRPEEVQGRVIMLPAVNMPAIQSDTRLSPVDGRDINRCFPGDPRGTFSQMLAHFLDSVILPMADISVDMHTAGHSYDSTPSTNMHYLADPALRARTLAAAEAFGAPHNVVFGGVDEGSTFTSCVERRGIVSLGTELGGWGRVNIEGVRIGKRGILNVLKHMGVIEGTPETAQRGGAAGTRHMMVREADAYVMAPRTGLFEPTHYVGEEVRTGETAGWIHFVEDVDTAPLELLYRRDGIVWFGAGPGRVTRGDAVAVVMEDYNDTWPQEGHHHHHH” stands “not failed”; under “MSLPPILTSQIGPDSIELRLLVAADLEYFNGHFPEQAVLPGVTQLDWAVRLGCEHFGYSAAVANLEVLKFQQLILPGQEVTLVISHNATKEKLTFAYSDGDHRYASGRISFASKQDDGLEHHHHHH”, “failed”.
Under “MSLPPSRPETLSIPEALHRAHAHWSAGQAAQAELLCQRVLAAWPGQADALHLLGLMAHAYGHLDLAIAHLRQACLAPRAPAAYSSNLAEMYRQKGLLAEAEDAARRAVAMDPALVSGWNNLGIVLQEAGKFAESLDCLERVILLQPDGAQAHNNLANTLRRLERLERAESHYRQALELDPAYAEAHSNLAFLLSAQGRHDEAAAAAQHAIELSPRLVDAYLNLAEAEMGRHRHEAALRVLDTLSTFAPQHPAALTARANVLKRVERLDEALAVARQAVVLAPRSAEAHHALAMALQTLGQTDEALPHFEQAARLPGAVAEEALVGRATLLMEAGRRDAARAAFDQALEQFPGSVQALAGRADARTFTAGDPDIAALEACLAEGERRSLRDRISAHFALGKAYLDLQDPARAFHHLDAGNRQKRSTFTYDGAASRRWMERIAEAFPPERHDPLHATGEPSALPVFIVGMPRSGTTLIEQIVSSHPQVMGAGELSALRLVVEGSGLFPDGMQRLAGEARGALFRQLGQAYLSRVAPLAQGRARLVDKMPSNFLYARLIPLILPGARIIHARRDPVDTCLSCYTKLFAGEQQFAYDQAELGALYRGYARLMAHWRAVLPPGCFIEVDYEAVVDDLEGEARRLIDFLDLPWNPACLHFHDNRRVVRTASVNQVRQPIYTTSKGRWQAYADYLGPLLEALGVEAP” stands “failed”.
On to “MSLQLDEYLRQLAPSMTQWRRDFHLHAESGWLEFRTASKVADILDGLGYQLALGRDVIDADSRMGLPDEETLARAFERAREQGAPERWLPAFEGGFAGVVATLDTGRPGPTLAFRVDMDALDLNEQHDDSHRPHRDHFASCNAGMMHACGHDGHTAIGLGLAHVLKQYAAQLNGVIKLIFQPAEEGTRGARAMVAAGVVDDVDYFTAIHIGTGVPAGTVVCGGDNFMATTKFDVQFSGVAAHAGGKPEDGRNALLAAAQAALGLHAIPPHSAGASRVNVGVMQAGTGRNVVPSSALLKVETRGESEAINQYVFERAQHVVAGAAAMYEARYELRMMGAATASAPSPAWVDYLREQAARVPGVQQAVDRIAAPAGSEDATLMMARVQARGGLASYMIFGTELSAGHHNEKFDFDESVMAVAVETLARVALNFPWQRGVEGHHHHHH”, for which the protein production result is recorded as “not failed”.
Under “MSLQRFTNRTIVVAGAGRDIGRACAIRFAQEGANVVLTYNGAAEGAATAVAEIEKLGRSALAIKADLTNAAEVEAAISAAADKFGEIHGLVHVAGGLIARKTIAEMDEAFWHQVLDVNLTSLFLTAKTALPKMAKGGAIVTFSSQAGRDGGGPGALAYATSKGAVMTFTRGLAKEVGPKIRVNAVCPGMISTTFHDTFTKPEVRERVAGATSLKREGSSEDVAGLVAFLASDDAAYVTGACYDINGGVLFSEGHHHHHH” stands “not failed”; under “MSLQRLLQHSSNGNLADFCAGPAYSSYSTLTGSLTMDDNRRIQMLADTVATLPRGRKQLALTRSSSLSDFSWSQRKLVTVEKQDNETFGFEIQSYRPQNQNACSSEMFTLICKIQEDSPAHCAGLQAGDVLANINGVSTEGFTYKQVVDLIRSSGNLLTIETLNGTMILKRTELEAKLQVLKQTLKQKWVEYRSLQLQEHRLLHGDAANCPSLENMDLDELSLFGPLPGPGPALVDRNRLSSESSCKSWLSSMTMDSEDGYQTCVSEDSSRGAFSRQTSTDDECFIPKEGDDFLRRSSSRRNRSISNTSSGSMSPLWEGNLSSMFGTLPRKSRKGSVRKQLLKFIPGLHRAVEEEESRF”, “not failed”.
For “MSLQSQPIALELIVRNHPGVMTHICGLFARRAFNVDGILCLPMKNSDKSRIWLLVQKDERLMQMVSQVEKLEDVKEVRFSDDLRVFEQMESYLN”, the protein production result is reported as “not failed”.
Under “MSLQVEGLSINLATIREQCGFAEAVDICLKHGITAIAPWRDQVAAIGLGEAGRIVRANGLKLTGLCRGGFFPAPDASGREKAIDDNRRAVDEAAELGADCLVLVAGGLPGGSKNIDAARRMVVEGIAAVLPHARAAGVPLAIEPLHPMYAADRACVNTLGQALDICETLGPGVGVAIDVYHVWWDPDLANQIARAGKMKAILAHHICDWLVPTKDMLTDRGMMGDGVIDLKGIRRRIEAAGFHGAQEVEIFSADNWWKRPADEVIATCVERYRNEGHHHHHH” stands “not failed”; under “MSLREVALKILIVEDDTDAREWLSTIISNHFPEVWSAGDGEEGERLFGLHAPDVIITDIRMPKLGGLEMLDRIKAGGAKPYVIVISAFSEMKYFIKAIELGVHLFLPKPIEPGRLMETLEDFRHIKLAKEGHHHHHH”, “not failed”.
